{"source": "the RNAGym collection of RNA variant scans (doi:10.1073/pnas.2313332121)", "parents": {"B1": {"name": "TPR t1 (parent)", "chain": "GACCAAUCUGCCCUCAGAGCUCGAGAACAUCUUCGGAUGCAGAGGAGGCAGGCUUCGGUGGCGCGAUAGCGCCAACGUCCUCAACCUCCAAUGCAUCCCACCACAUGAUGAUGCCUGAAGAGCCUUGGUUUUUUG"}}, "data": [{"variants_of": "B1", "experiment": "polymerase ribozyme fitness, log enrichment relative to wild type (log ratio); higher = more active; in vitro selection for triplet polymerase activity", "outline": "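Frozen incubation at −7 °C formed the core of a single, triplicate in vitro selection round applied to PCR-built, transcribed mutant libraries of each subunit of a heterodimeric triplet polymerase ribozyme. Extended constructs were gel-excised, captured with streptavidin beads and amplified by RT-PCR, and input and output libraries were Illumina-sequenced with a filter of ≥10 input reads and ≥1 read per output. Fitness is the logarithm of genotype enrichment relative to wild-type enrichment, with inverse-variance-weighted replicate averaging, and the logarithm is base 2.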", "values": [{"variant": "GACCAAUCUGCCCGCAGAGCUCGAGAACAUCUUCGGAUGCAGAGGAGGCAGGCUUCGGUGGCGCGAUAGCGCCAACGUCCUCAACCUCCAAUGCAUCCCACCACAUGAUGAUGCCUGAAGAGCCUUGAUUUUUUG", "polymerase ribozyme fitness (log ratio)": -3.77}, {"variant": "GACCAAUCUGCCCUCAGAGCUCGAGAACUUCUUCGGAUGCAGAGGAGGCAGGCUUCGGUGGCGCGAUAUCGCCAACGUCCUCAACCUCCAAUGCAUCCCACCACAUGAUGAUGCCUGAAGAGCCUUGGUUUUUUG", "polymerase ribozyme fitness (log ratio)": -0.63}, {"variant": "GUCCAAUCUGCCCUCAGAGCUCGAGAACAUCUUCGGAUGCAGAGGAGGCAGGCUUAGGUGGCGUGAUAGCGCCAACGUCCUCAACCUCCAAUGCAUCCCACCACAUGAUGAUGCCUGAACAGCCUUGGUUUUUUG", "polymerase ribozyme fitness (log ratio)": -3.86}, {"variant": "GAGCAAUCUGCCUUCAGAGCUCGAGAACAUCUUCGUAUGCAGAGAAGGCAGGCUUCGGUGGCGCGAUAGCGUCAACGUCCUCAACCUCCAAUGCAUCCCACCACAUGAUGAUGCCUGAAGAGCCAUUGUUCUUUG", "polymerase ribozyme fitness (log ratio)": -2.84}, {"variant": "GAUCAAUCUACCCUCAGAGCCCGAGAACAUCUUCGGAUGCAGAGGAGGCAGGCUUCGGUGACGCGAUAGCGCCAACGUCCUCAACCUCCAAUGCAUCUCACCACAUGAUGAUGCCUGAUGAGCCUUGGUUUUUUG", "polymerase ribozyme fitness (log ratio)": -2.55}, {"variant": "GACCAAUCUGCCCUCAGAGCUCGAGAACAUCUUCGGAUGAAAAGGAGUCAGGCUUCGAUGGCGCGAUAGCGCCAACGUCCUCAACCUCCGAUGCAUCCCACCACAUGAUGAUGCCUGAAGAGCCUUGGUUUUUUG", "polymerase ribozyme fitness (log ratio)": -2.65}, {"variant": "GACCAAUCUGCCCUCAGAGCUCGAGAACAUCUUCGGAUCCAGAGGAGGCAGGCUUCGGUGGCGCUAUAGCGCCAACGUCCUCAACCUCCAAUGCAUCCCACCACAUGAUGAUGCCUGAAGAGCCUUGGUUUUUUG", "polymerase ribozyme fitness (log ratio)": -6.02}, {"variant": "GACCAAUCUGCCCUCAGAGCUCGAGAACAUCUUCGGAUGCAGGGGAGGCAGGCUUCGGUGGCGCGAUAGCGCGACCGUCCUCAACCUCCAAUGCAUCCCACCACAUGAUGAAGCCUGAAGAGCCUUGGUUUUUUG", "polymerase ribozyme fitness (log ratio)": -3.33}, {"variant": "GACCAAUCUGCCGUCAGAGCUCGAGAACAUCUUCGGAUGCAGAGGAGGCAGGCUUCGGUGGCGCGAUAGCGACAACGUCCUAAACCUCCAAUGCAGCCCUCCACAUGAUGAUGCAUGAAGAGCCUUGGUUUUUUG", "polymerase ribozyme fitness (log ratio)": -3.76}, {"variant": "GACCAAUCUGCCCUCAGAGCUCGAGAACAUCUUCGGAUGCAGAGGAGGCAGGGUUCGGUGGCGCGAUAGCGCCAACGUACUCAACCUCCAAUGCAUCCCACCACAUGAUGAUGCCUGAACAGCCUUGGUUUUAUG", "polymerase ribozyme fitness (log ratio)": -4.39}, {"variant": "GACCAAUCUGCCCUCGGAGCUCGAGAACAUCUUCGGAUGCAGAGGAGGCAGGGUUCGGUGGCGCGAUAGCGCCAACGUCCUCACCCUACAAUGCAUCCCAGCACAUGAUGAUGCCUGAAGAGCCUUGGUUUUUUG", "polymerase ribozyme fitness (log ratio)": -4.3}, {"variant": "GACCAAUAUGCGCUCAGAGCUCGAGAACAUCUUCGGAUGCAGAGGAGGCAGGCUUCGGUGGCGAGAUAGCGCCAACGUCCUCAACCUCCAAUGCAUCCCACCACAUGAUGAUGCCUGAAGAGACUUGGUUUUUUG", "polymerase ribozyme fitness (log ratio)": -6.53}, {"variant": "GACCAAUCUGCCCUCAGAGCUCGAGAACAUCUUCGGAUGCAGAGGAGGCAGGCUUCGGUGGCCCGAUAGCGCCAACGUCCUCAAGCUCCAAUGCAUCCCACCACAUGAUGAUGCCUGAAGAGCCUUGGUUUUUUG", "polymerase ribozyme fitness (log ratio)": -1.96}, {"variant": "GACCAAUCUGCCCUCAGAGCUCGAGAACAUCUUCGGAUGCAGAGGAGGCAGGCUUCGGUGGCGCGAUAGCACCAACGUCCUCAACCUCCAAUGCAUCCCACCACAUGAUGAUGCCUGAACAGCCUUAGUUGUUUG", "polymerase ribozyme fitness (log ratio)": 1.2}, {"variant": "GACCAAUCUGCUCUCAGUGCUCGAGAACAUCUUCGGAUGCAGAGGAGGCAGGCUUCGGUGGCGCGAUAGCGCCAACGUCCUCAACCUCCAAUGCAUCCCACCACAUGUUGAUGUCUGAAGCGCCUUGGCUUUUUG", "polymerase ribozyme fitness (log ratio)": -6.88}, {"variant": "GACCAAUCUGCCCUCAGAGCUCGAGAACAUCUUCGGAUGCAGAGGAGGCAGGCUUUGGUGGCGCGAUAGCGACAACGUCCUCAACCUCCAAUGCAUCCCCCCAUAUGAUGAUGCCUGAAGGGCCUUGGUUUUUUG", "polymerase ribozyme fitness (log ratio)": 1.21}, {"variant": "GACCAAUCUGCCCUCAGAGCUCGAGAACAUCUUCGGAUGCAGAGGAGGCAGGCUUCGGUGGCGCGAUAGCGCCAACGACCUCAACCUCCAAUGCAUCCCACCACAUGAUGAUGCCUGAAAAGCCUUGGUUUUUUG", "polymerase ribozyme fitness (log ratio)": 0.814}, {"variant": "GACCAAUCUGCCCUCAGAGCUCGAGAACAUCUUCGGAUGCAGAUGAGGUAGGCUUCGGUGGCGCGAUAGCGCCAACGUCCUCAACCUCCAAUGCACCCCACCACAUGAUGGUGCCUGAAGAGCCUUGGUUUUUUG", "polymerase ribozyme fitness (log ratio)": -3.97}, {"variant": "GACCAAUCUGCCCUCAGAGCUCGAGAACAUCUUCGGAUGCAGAGGAGGCAGGCUUCGGUGGCGCUCUAGCGCCAACGUCCUCAACCUCCAAUGCAUCCCACCACAUGAUGAUGCCUGAAGAGCCUUGGUUUUUUG", "polymerase ribozyme fitness (log ratio)": -4.3}, {"variant": "GACCAAUCUGCCCUCAGAGCUCGAGAACAUCUUCGGAUGCAGAGGAGGCAGGCUUCGGUGGCGCGAUAGCGACAACGGCCUCAACCUCCAAUGCAUCCCACCACAUGAUGAUGCCUGAAGAGCCUUGGUUUUUUG", "polymerase ribozyme fitness (log ratio)": -1.71}, {"variant": "GACCAAUCUGCCCUUAGAGCUCGAGAACAUCUUCGGAUGCAGAGGAGGCAGGCUUCGGUGGCGCGAUAGCGCCAACGUCCUCCACCUCCAGUGCAUCCCACCACAUGAUGGUGCCUGAAGAGCCUUGGUUUUUUG", "polymerase ribozyme fitness (log ratio)": -2.96}]}]}
